Laboratory results reported in US20230357429A1 (JANUX THERAPEUTICS, published 2023).
Changes are numbered by the printed parent chain. Numbers in names are those of the source. Like-named read-outs stand apart in the source and are kept apart here. Values belong to the binder of their own block, whether it stands above or below them. Where no end group is shown, it is not given here.

Columns and labels:
[1] = target: T1, Human TROP2 ECD (31-274 AA), biotinylated (human, UniProt P09758 31-274, biotinylated (site not stated)); assay: BLI (Octet), biotinylated human TROP2 ECD on SAX sensor, Fab 6.25-50 nM
T1 construct: also called tumor-associated calcium signal transducer 2; Human TROP2-biotin
T1 sequence: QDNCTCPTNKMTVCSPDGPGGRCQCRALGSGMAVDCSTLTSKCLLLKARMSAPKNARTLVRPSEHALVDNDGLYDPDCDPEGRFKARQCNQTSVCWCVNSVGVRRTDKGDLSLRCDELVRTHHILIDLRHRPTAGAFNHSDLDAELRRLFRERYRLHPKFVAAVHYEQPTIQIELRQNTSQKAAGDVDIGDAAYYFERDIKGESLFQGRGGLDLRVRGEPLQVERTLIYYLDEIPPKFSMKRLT

[2] = target: T1, Human TROP2 ECD (31-274 AA), …; assay: ELISA, biotinylated TROP2 ECD on neutravidin plate, Fab titrated
Method: (§1) Binding was detected using a standard horse radish peroxidase secondary antibody. The concentration of the TBD required to achieve 50% maximal signal (EC₅₀) was calculated.

[3] = target: T1, Human TROP2 ECD (31-274 AA), …; assay: ELISA: biotinylated TROP2 captured on neutravidin plate, Fab titrated, HRP secondary antibody
Method: as §1

[4] = target: T1, Human TROP2 ECD (31-274 AA), …; assay: ELISA, ratio of EC50 to that of TBD-1 wt
Method: as §1

[5] = target: T1, Human TROP2 ECD (31-274 AA), …; assay: BLI (Octet), dissociation half-life from biotinylated human TROP2 ECD
Method: (§2) Kinetic binding was measured using biolayer interferometry (BLI). […] The TBDs diluted in buffer were then associated onto the antigen loaded biosensors. Sensors were then transferred to buffer where the TBD constructs then dissociated from the sensors. Association and dissociation rates were measured in real time using an Octet® instrument.

[6] = target: T1, Human TROP2 ECD (31-274 AA), …; assay: ELISA: biotinylated TROP2 captured on neutravidin plate, Fab titrated, HRP secondary antibody; remark: listed apart in the source
Method: as §1

[7] = target: T1, Human TROP2 ECD (31-274 AA), …; assay: BLI (Octet), dissociation half-life from biotinylated human TROP2 ECD; remark: listed apart in the source
[8] = target: T1, Human TROP2 ECD (31-274 AA), …; assay: ELISA, biotinylated TROP2 ECD on neutravidin plate, Fab titrated; remark: listed apart in the source
Method: as §1

[9] = target: T1, Human TROP2 ECD (31-274 AA), …; assay: BLI (Octet), biotinylated human TROP2 ECD on SAX sensor, Fab 6.25-50 nM; remark: listed apart in the source
Method: as §2

[10] = target: T1, Human TROP2 ECD (31-274 AA), …; assay: ELISA, ratio of EC50 to that of TBD-1 wt; remark: listed apart in the source
Method: as §1

[11] = target: T2, Human TROP2 ECD (31-274 AA), biotinylated (human, UniProt P09758 31-274, biotinylated (site not stated)); assay: ELISA, Fab on captured biotin-TROP2
T2 construct: captured on neutravidin plates; also called TROP2-biotin; Trop2-biotin
T2 sequence: T1 sequence

[12] = target: T2, Human TROP2 ECD (31-274 AA), …; assay: ELISA, Fab on captured biotin-TROP2; remark: listed apart in the source
Peptide-37 = target: T3, Peptide-37 (cysteine pairing not given here; also: biotinylated, site not given here); assay: ELISA, Fab on captured biotin-peptide
T3 peptide: VDFCYLYNWPVCSK

Peptide-63 = target: T4, Peptide-63 (cysteine pairing not given here; also: biotinylated, site not given here); assay: ELISA, Fab on captured biotin-peptide
T4 peptide: IDFCLIYNWPVCDT

Peptide-32 = target: T5, Peptide-32 (cysteine pairing not given here; also: biotinylated, site not given here); assay: ELISA, Fab on captured biotin-peptide
T5 peptide: PDFCYMYGWPICDS

Peptide-35 = target: T6, Peptide-35 (cysteine pairing not given here; also: biotinylated, site not given here); assay: ELISA, Fab on captured biotin-peptide
T6 peptide: EDFCYWYQWPICSD

Peptide-33 = target: T7, Peptide-33 (cysteine pairing not given here; also: biotinylated, site not given here); assay: ELISA, Fab on captured biotin-peptide
T7 peptide: PDFCYMYNWPVCVT

Peptide-36 = target: T8, Peptide-36 (cysteine pairing not given here; also: biotinylated, site not given here); assay: ELISA, Fab on captured biotin-peptide
T8 peptide: VDFCYQYGWPICSR

Peptide-64 = target: T9, Peptide-64 (cysteine pairing not given here; also: biotinylated, site not given here); assay: ELISA, Fab on captured biotin-peptide
T9 peptide: PDFCAVYRWPICYQ

Peptide-25 [13] = target: T10, Peptide-25 (cysteine pairing not given here; also: biotinylated (site not given here)); assay: ELISA, Fab on captured biotin-peptide
T10 peptide: VDFCKIYSWPVCHQ

Peptide-43 = target: T11, Peptide-43 (cysteine pairing not given here; also: biotinylated, site not given here); assay: ELISA, Fab on captured biotin-peptide
T11 peptide: VDFCALYHWPICYQ

Peptide-62 = target: T12, Peptide-62 (cysteine pairing not given here; also: biotinylated, site not given here); assay: ELISA, Fab on captured biotin-peptide
T12 peptide: IDFCAVYKWPVCQV

Peptide-40 = target: T13, Peptide-40 (cysteine pairing not given here; also: biotinylated, site not given here); assay: ELISA, Fab on captured biotin-peptide
T13 peptide: VDFCYLYSWPICTK

Peptide-41 = target: T14, Peptide-41 (cysteine pairing not given here; also: biotinylated, site not given here); assay: ELISA, Fab on captured biotin-peptide
T14 peptide: VDFCGLYHWPICYQVY

Peptide-3 [14] = target: T15, Peptide-3 (cysteine pairing not given here; also: biotinylated, site not given here); assay: ELISA, Fab on captured biotin-peptide
T15 peptide: IDFCMLYNWPICAG

Peptide-42 = target: T16, Peptide-42 (cysteine pairing not given here; also: biotinylated, site not given here); assay: ELISA, Fab on captured biotin-peptide
T16 peptide: IDFCAMYHWPICDT

Peptide-8 [15] = target: T17, Peptide-8 (cysteine pairing not given here; also: biotinylated, site not given here); assay: ELISA, Fab on captured biotin-peptide
T17 peptide: VDFCGLYHWPICYQ

Peptide-38 = target: T18, Peptide-38 (cysteine pairing not given here; also: biotinylated, site not given here); assay: ELISA, Fab on captured biotin-peptide
T18 peptide: VDFCSIYHWPVCYV

Peptide-39 = target: T19, Peptide-39 (cysteine pairing not given here; also: biotinylated, site not given here); assay: ELISA, Fab on captured biotin-peptide
T19 peptide: VDFCGLYHWPICYQVD

Peptide-20 = target: T20, Peptide-20 (cysteine pairing not given here; also: biotinylated (site not given here)); assay: ELISA, Fab on captured biotin-peptide
T20 peptide: VDFCSFYRWPICET

Peptide-13 = target: T21, Peptide-13 (cysteine pairing not given here; also: biotinylated (site not given here)); assay: ELISA, Fab on captured biotin-peptide
T21 peptide: VDFCELYRWPICNS

Peptide-14 = target: T22, Peptide-14 (cysteine pairing not given here; also: biotinylated (site not given here)); assay: ELISA, Fab on captured biotin-peptide
T22 peptide: LDFCKIYDWPICHL

Peptide-18 = target: T23, Peptide-18 (cysteine pairing not given here; also: biotinylated (site not given here)); assay: ELISA, Fab on captured biotin-peptide
T23 peptide: MDFCQIYDWPICRL

Peptide-12 = target: T24, Peptide-12 (cysteine pairing not given here; also: biotinylated (site not given here)); assay: ELISA, Fab on captured biotin-peptide
T24 peptide: PDFCAVYRWPICYQ

Peptide-25 [16] = target: T10, Peptide-25; assay: ELISA, Fab on captured biotin-peptide
Method: (§3) Binding was measured in a standard ELISA format. […] Bound TBDs were detected using a standard horse radish peroxidase conjugate secondary antibody. The ELISA signal was plotted versus the log-scale concentration of TBD. The concentrations of TBD required to observe half maximal binding signal (EC₅₀s) were calculated using Graphpad Prism software.

Peptide-6 = target: T25, Peptide-6 (cysteine pairing not given here; also: biotinylated, site not given here); assay: ELISA, Fab on captured biotin-peptide
T25 peptide: IDFCLIYNWPVCDT

Peptide-10 = target: T26, Peptide-10 (cysteine pairing not given here; also: biotinylated (site not given here)); assay: ELISA, Fab on captured biotin-peptide
T26 peptide: IDFCAIYQWPVCRS

Peptide-7 = target: T27, Peptide-7 (cysteine pairing not given here; also: biotinylated, site not given here); assay: ELISA, Fab on captured biotin-peptide
T27 peptide: EDFCKLYNWPICYQ

Peptide-3 [17] = target: T15, Peptide-3; assay: ELISA, Fab on captured biotin-peptide
Method: as §3

Peptide-4 = target: T28, Peptide-4 (cysteine pairing not given here; also: biotinylated, site not given here); assay: ELISA, Fab on captured biotin-peptide
T28 peptide: VDFCKIYAWPICGS

Peptide-5 = target: T29, Peptide-5 (cysteine pairing not given here; also: biotinylated, site not given here); assay: ELISA, Fab on captured biotin-peptide
T29 peptide: VDFCKLYNWPVCQT

Peptide-17 = target: T30, Peptide-17 (cysteine pairing not given here; also: biotinylated (site not given here)); assay: ELISA, Fab on captured biotin-peptide
T30 peptide: IDFCLLYDWPICGR

Peptide-2 = target: T31, Peptide-2 (cysteine pairing not given here; also: biotinylated (site not given here)); assay: ELISA, Fab on captured biotin-peptide
T31 peptide: IDFCAVYKWPVCQV

Peptide-8 [18] = target: T17, Peptide-8; assay: ELISA, Fab on captured biotin-peptide
Method: as §3

Peptide-1 = target: T32, Peptide-1 (cysteine pairing not given here; also: biotinylated (site not given here)); assay: ELISA, Fab on captured biotin-peptide
T32 peptide: IDFCAMYQWPICDT

B4: TBD-20 (anti-TROP2 Fab, HC Y107A) (Fab, V domains shown)
VH: QVQLQQSGSELKKPGASVKVSCKASGYTFTNYGMNWVKQAPGQGLKWMGWINTYTGEPTYTDDFKGRFAFSLDTSVSTAYLQISSLKADDTAVYFCARGGFGSSYWAFDVWGQGSLVTVSS
VL: DIQLTQSPSSLSASVGDRVSITCKASQDVSIAVAWYQQKPGKAPKLLIYSASYRYTGVPDRFSGSGSGTDFTLTISSLQPEDFAVYYCQQHYITPLTFGAGTKVEIKR
t1/2 [7]: 10 min | EC50 [8]: 52.3 nM | Kd [9]: 6.34 nM | Fold shift in EC50 relative to wt [10]: 262 fold | EC50 [6]: 52.2 nM

B5: TBD-22 (HC D109A) (Fab, V domains shown)
VH: B4 VH with A107Y, D109A
VL: B4 VL
notes: Fab; also called HC D109A mutant
EC50 [11]: 1.1 nM | EC50 [12]: 1.1 nM | EC50 (Peptide-37): 1.7 nM | EC50 (Peptide-63): 1.7 nM | EC50 (Peptide-32): 2.1 nM | EC50 (Peptide-35): 7.7 nM | EC50 (Peptide-33): 1.5 nM | EC50 (Peptide-36): 2.2 nM | EC50 (Peptide-64): 1.7 nM | EC50 (Peptide-25 [13]): 2.8 nM | EC50 (Peptide-43): 0.9 nM | EC50 (Peptide-62): 0.9 nM | EC50 (Peptide-40): 4.6 nM | EC50 (Peptide-41): 6 nM | EC50 (Peptide-3 [14]): 3 nM | EC50 (Peptide-42): 0.8 nM | EC50 (Peptide-8 [15]): 0.6 nM | EC50 (Peptide-38): 2 nM | EC50 (Peptide-39): 4.6 nM | EC50 (Peptide-20): 5.3 nM | EC50 (Peptide-13): 3.9 nM | EC50 (Peptide-14): 5.3 nM | EC50 (Peptide-18): 7.8 nM | EC50 (Peptide-12): 0.6 nM | EC50 (Peptide-25 [16]): 1.9 nM | EC50 (Peptide-6): 1.4 nM | EC50 (Peptide-10): 1 nM | EC50 (Peptide-7): 3.6 nM | EC50 (Peptide-3 [17]): 1.6 nM | EC50 (Peptide-4): 1.2 nM | EC50 (Peptide-5): 0.9 nM | EC50 (Peptide-17): 2.6 nM | EC50 (Peptide-2): 1.1 nM | EC50 (Peptide-8 [18]): 0.6 nM | EC50 (Peptide-1): 1 nM

B6: TBD-16 (anti-TROP2 Fab, HC S103A) (Fab, V domains shown)
VH: B4 VH with S103A, A107Y
VL: B4 VL
Kd [1]: 0.211 nM | EC50 [2]: 0.2 nM | Fold shift in EC50 relative to wt [4]: 1 fold | EC50 [6]: 0.177 nM | t1/2 [5]: 103 min

B7: TBD-14 (anti-TROP2 Fab, HC F101A) (Fab, V domains shown)
VH: B4 VH with F101A, A107Y
VL: B4 VL
Kd [1]: 18.7 nM | EC50 [2]: 38.6 nM | Fold shift in EC50 relative to wt [4]: 193 fold | EC50 [6]: 38.6 nM | t1/2 [5]: 4 min

More lines, now with the values ahead:

Kd [1]: 3.88 nM | EC50 [2]: 3.8 nM | EC50 [3]: 3.8 nM | Fold shift in EC50 relative to wt [4]: 19 fold | t1/2 [5]: 10 min
B1: TBD-11 (anti-TROP2 Fab, HC R98A) (Fab, V domains shown)
VH: B4 VH with R98A, A107Y
VL: B4 VL
notes: also called TBD-11 (HC R98A mutant)

Kd [1]: 5.71 nM | EC50 [2]: 72.2 nM | Fold shift in EC50 relative to wt [4]: 361 fold | EC50 [6]: 72.2 nM | t1/2 [5]: 1 min
B2: TBD-15 (anti-TROP2 Fab, HC G102A) (Fab, V domains shown)
VH: B4 VH with G102A, A107Y
VL: B4 VL

t1/2 [7]: 24 min | EC50 [8]: 0.4 nM | Kd [9]: 0.9 nM | Fold shift in EC50 relative to wt [10]: 2 fold | EC50 [6]: 0.432 nM
B3: TBD-17 (anti-TROP2 Fab, HC S104A) (Fab, V domains shown)
VH: B4 VH with S104A, A107Y
VL: B4 VL
notes: also called TBD-17 (HC S104A mutant)

Kd [1]: 0.492 nM | EC50 [2]: 0.2 nM | EC50 [3]: 0.2 nM | Fold shift in EC50 relative to wt [4]: 1 fold | t1/2 [5]: 39 min
B8: TBD-12 (anti-TROP2 Fab, HC G99A) (Fab, V domains shown)
VH: B4 VH with G99A, A107Y
VL: B4 VL
